Assay results taken from patent publication US12186374B2 (Sanofi-Aventis Deutschland GmbH, priority 2014, dated 2025).

Test system: patients with T2DM
Assay: Treatment-emergent adverse events incl. serious, fatal, leading to discontinuation (Example 3)
Settings: Safety population

Substance: Gly(A21)-Arg(B31)-Arg(B32)-human insulin [Insulin Glargine]
- Number of patients experiencing TEAE(s) leading to permanent treatment discontinuation: Cardiopulmonary failure (PT): 1
- Number of patients experiencing TEAE(s) leading to permanent treatment discontinuation: Dizziness (PT): 0
- Number of patients experiencing TEAE(s) leading to permanent treatment discontinuation: Gallbladder cancer (PT): 1
- Number of patients experiencing TEAE(s) leading to permanent treatment discontinuation: Hypoglycaemic unconsciousness (PT): 0
- Number of patients experiencing TEAE(s) leading to permanent treatment discontinuation: Nausea (PT): 0
- Number of patients experiencing TEAE(s) leading to permanent treatment discontinuation: Pneumonia (PT): 0
- Number of patients experiencing TEAE(s) leading to permanent treatment discontinuation: Pregnancy (PT): 1
- Number of patients experiencing TEAE(s) leading to permanent treatment discontinuation: Weight increased (PT): 0
- Number of patients experiencing serious TEAE(s): Acute myocardial infarction (PT): 0
- Number of patients experiencing serious TEAE(s): Angina unstable (PT): 0
- Number of patients experiencing serious TEAE(s): Arteriosclerosis coronary artery (PT): 0
- Number of patients experiencing serious TEAE(s): Benign breast neoplasm (PT): 0
- Number of patients experiencing serious TEAE(s): Benign gastric neoplasm (PT): 0
- Number of patients experiencing serious TEAE(s): Benign prostatic hyperplasia (PT): 1
- Number of patients experiencing serious TEAE(s): Breast cancer (PT): 0
- Number of patients experiencing serious TEAE(s): Cardiac failure congestive (PT): 1
- Number of patients experiencing serious TEAE(s): Cardiopulmonary failure (PT): 1
- Number of patients experiencing serious TEAE(s): Chest discomfort (PT): 1
- Number of patients experiencing serious TEAE(s): Cholecystitis acute (PT): 1
- Number of patients experiencing serious TEAE(s): Cholecystitis chronic (PT): 0
- Number of patients experiencing serious TEAE(s): Gallbladder cancer (PT): 1
- Number of patients experiencing serious TEAE(s): Glaucoma (PT): 1
- Number of patients experiencing serious TEAE(s): Hypertension (PT): 1
- Number of patients experiencing serious TEAE(s): Hypoglycaemia (PT): 1
- Number of patients experiencing serious TEAE(s): Hypoglycaemic seizure (PT): 0
- Number of patients experiencing serious TEAE(s): Hypoglycaemic unconsciousness (PT): 0
- Number of patients experiencing serious TEAE(s): Intervertebral disc protrusion (PT): 1
- Number of patients experiencing serious TEAE(s): Kaposi’s sarcoma (PT): 1
- Number of patients experiencing serious TEAE(s): Meniscus injury (PT): 1
- Number of patients experiencing serious TEAE(s): Myocardial infarction (PT): 0
- Number of patients experiencing serious TEAE(s): Non-cardiac chest pain (PT): 2
- Number of patients experiencing serious TEAE(s): Osteoarthritis (PT): 0
- Number of patients experiencing serious TEAE(s): Osteomyelitis (PT): 1
- Number of patients experiencing serious TEAE(s): Pneumonia (PT): 1
- Number of patients experiencing serious TEAE(s): Renal impairment (PT): 1
- Number of patients experiencing serious TEAE(s): Scar (PT): 0
- Number of patients experiencing serious TEAE(s): Squamous cell carcinoma of the tongue (PT): 0
- Number of patients experiencing serious TEAE(s): Subdural haematoma (PT): 0
- Number of patients experiencing serious TEAE(s): Supraventricular tachycardia (PT): 0
- Number of patients experiencing serious TEAE(s): Tendonitis (PT): 0
- Number of patients experiencing serious TEAE(s): Wound infection (PT): 1
- % of patients experiencing TEAE(s) leading to permanent treatment discontinuation: Cardiac disorders (SOC): (0.3%)
- % of patients experiencing TEAE(s) leading to permanent treatment discontinuation: Neoplasms benign, malignant and unspecified (incl cysts and polyps) (SOC): (0.3%)
- % of patients experiencing TEAE(s) leading to permanent treatment discontinuation: Pregnancy, puerperium and perinatal conditions (SOC): (0.3%)
- % of patients experiencing serious TEAE(s): Cardiac disorders (SOC): (0.5%)
- % of patients experiencing serious TEAE(s): Eye disorders (SOC): (0.3%)
- % of patients experiencing serious TEAE(s): General disorders and administration site conditions (SOC): (0.8%)
- % of patients experiencing serious TEAE(s): Hepatobiliary disorders (SOC): (0.3%)
- % of patients experiencing serious TEAE(s): Infections and infestations (SOC): (0.8%)
- % of patients experiencing serious TEAE(s): Injury, poisoning and procedural complications (SOC): (0.3%)
- % of patients experiencing serious TEAE(s): Metabolism and nutrition disorders (SOC): (0.3%)
- % of patients experiencing serious TEAE(s): Musculoskeletal and connective tissue disorders (SOC): (0.3%)
- % of patients experiencing serious TEAE(s): Neoplasms benign, malignant and unspecified (incl cysts and polyps) (SOC): (0.5%)
- % of patients experiencing serious TEAE(s): Renal and urinary disorders (SOC): (0.3%)
- % of patients experiencing serious TEAE(s): Reproductive system and breast disorders (SOC): (0.3%)
- % of patients experiencing serious TEAE(s): Vascular disorders (SOC): (0.3%)
- Number of patients experiencing TEAE(s) leading to permanent treatment discontinuation: Cardiac disorders (SOC): 1
- Number of patients experiencing TEAE(s) leading to permanent treatment discontinuation: Gastrointestinal disorders (SOC): 0
- Number of patients experiencing TEAE(s) leading to permanent treatment discontinuation: Infections and infestations (SOC): 0
- Number of patients experiencing TEAE(s) leading to permanent treatment discontinuation: Investigations (SOC): 0
- Number of patients experiencing TEAE(s) leading to permanent treatment discontinuation: Neoplasms benign, malignant and unspecified (incl cysts and polyps) (SOC): 1
- Number of patients experiencing TEAE(s) leading to permanent treatment discontinuation: Nervous system disorders (SOC): 0
- Number of patients experiencing TEAE(s) leading to permanent treatment discontinuation: Pregnancy, puerperium and perinatal conditions (SOC): 1
- Number of patients experiencing serious TEAE(s): Cardiac disorders (SOC): 2
- Number of patients experiencing serious TEAE(s): Eye disorders (SOC): 1
- Number of patients experiencing serious TEAE(s): General disorders and administration site conditions (SOC): 3
- Number of patients experiencing serious TEAE(s): Hepatobiliary disorders (SOC): 1
- Number of patients experiencing serious TEAE(s): Infections and infestations (SOC): 3
- Number of patients experiencing serious TEAE(s): Injury, poisoning and procedural complications (SOC): 1
- Number of patients experiencing serious TEAE(s): Metabolism and nutrition disorders (SOC): 1
- Number of patients experiencing serious TEAE(s): Musculoskeletal and connective tissue disorders (SOC): 1
- Number of patients experiencing serious TEAE(s): Neoplasms benign, malignant and unspecified (incl cysts and polyps) (SOC): 2
- Number of patients experiencing serious TEAE(s): Nervous system disorders (SOC): 0
- Number of patients experiencing serious TEAE(s): Renal and urinary disorders (SOC): 1
- Number of patients experiencing serious TEAE(s): Reproductive system and breast disorders (SOC): 1
- Number of patients experiencing serious TEAE(s): Vascular disorders (SOC): 1
- % of patients experiencing TEAE(s) leading to permanent treatment discontinuation: Any TEAE leading to permanent treatment discontinuation: (0.8%)
- % of patients experiencing serious TEAE(s): Any serious TEAE: (4.9%)
- Number of patients experiencing TEAE(s) leading to permanent treatment discontinuation: Any TEAE leading to permanent treatment discontinuation: 3
- Number of patients experiencing serious TEAE(s): Any serious TEAE: 18
- Patients with any TEAE, number: 191 n
- Patients with any TEAE, percentage: (52.3%)
